US20100041074A1 (published 2010)
“And” between values parts separate entries of the source, which are not always exact repeats. Equal entries are not always repeated.

Target: GST fused GRP78 protein (GST-GRP78) purified from E. coli (UniProt P11021 19-654)
Experiment: ELISA

B1: toxin-labeled GD17 single-chain antibody (GD17scFv-PE40) (scFv)
scFv: MDHHHHHHHHHHKLQVQLQQSGAELARPGASVKLSCKASGYTFTSYWMHWVKQRPGQGLEWIGAIYPGDGDTRYTQKFKGKATLTADKSSSTAYMQLSSLASEDSAVYYCASGITAVADYWGQGTTLTVSSGGGGSGGGGSGGGGSDVVMTQTPLSLPVSLGDQASISCRSSQSLVHSNGNTYLHWYLQKPGQSPKLLIYKVSNRFSGVPDRFSGSGSGTDFTLKISRVEAEDLGVYFCSQSTHVPLTFGAGTKLELKEFGGAPEFPKPSTPPGSSGLEGGSLAALTAHQACHLPLETFTRHRQPRGWEQLEQCGYPVQRLVALYLAARLSWNQVDQVIRNALASPGSGGDLGEAIREQPEQARLALTLAAAESERFVRQGTGNDEAGAANADVVSLTCPVAAGECAGPADSGDALLERNYPTGAEFLGDGGDVSFSTRGTQNWTVERLLQAHRQLEERGYVFVGYHGTFLEAAQSIVFGGVRARSQDLDAIWRGFYIAGDPALAYGYAQDQEPDARGRIRNGALLRVYVPRSSLPGFYRTSLTLAAPEAAGEVERLIGHPLPLRLDAITGPEEEGGRLETILGWPLAERTVVIPSAIPTDPRNVGGDLDPSSIPDKEQAISALPDYASQPGKPPDYKDDDDKKDEL
  EC50: 1.41 nM and 1.25 nM
